System: Escherichia coli TOP10
Assay: shrunken log2 fold change of peptide-encoding DNA abundance (4.5 h post-induction vs induction); higher = less antimicrobial activity (less host growth inhibition)
Conditions: time post-induction: 4.5 h; library: site-saturation at positions 5, 18, 19, 20
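Also: peptides expressed intracellularly from a pBAD plasmid library in pooled LB shake-flask culture, induced with 0.3% L-arabinose, DNA abundance read by NGS, three biological replicates, DESeq2 with apeglm shrinkage.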

For RRIRERPPRLPRPRPRPKDSPRP, the “shrunken log2 fold change” value was -0.212.

In the case of RRIRFRPPRLPRPRPRPLYYPRP, the “shrunken log2 fold change” value is reported as -0.885.

In the case of RRIRARPPRLPRPRPRPYYIPRP, the “shrunken log2 fold change” value is reported as -0.409.

For RRIRARPPRLPRPRPRPNDHPRP, the “shrunken log2 fold change” value was -0.0473.

In the case of RRIRTRPPRLPRPRPRPIKQPRP, the “shrunken log2 fold change” value is reported as -0.0342.

With RRIRFRPPRLPRPRPRPEYMPRP the “shrunken log2 fold change” value was -0.421.

For RRIRWRPPRLPRPRPRPWMAPRP, the “shrunken log2 fold change” value was 0.0321.

RRIRGRPPRLPRPRPRPGFVPRP was tested, and the “shrunken log2 fold change” value was 0.768.

In the case of RRIRHRPPRLPRPRPRPLYWPRP, the “shrunken log2 fold change” value is reported as -0.276.

With RRIRARPPRLPRPRPRPKVVPRP the “shrunken log2 fold change” value was -0.0348.

In the case of RRIRERPPRLPRPRPRPKIAPRP, the “shrunken log2 fold change” value is reported as -0.147.

With RRIRIRPPRLPRPRPRPHCSPRP the “shrunken log2 fold change” value was -1.21.

With RRIRPRPPRLPRPRPRPRTFPRP the “shrunken log2 fold change” value was 0.23.

For RRIRVRPPRLPRPRPRPENSPRP, the “shrunken log2 fold change” value was -0.522.

For RRIRDRPPRLPRPRPRPMPLPRP, the “shrunken log2 fold change” value was -0.0224.

For RRIRGRPPRLPRPRPRPQDAPRP, the “shrunken log2 fold change” value was 0.832.

With RRIRCRPPRLPRPRPRPGLMPRP the “shrunken log2 fold change” value was -0.102.

In the case of RRIRTRPPRLPRPRPRPACWPRP, the “shrunken log2 fold change” value is reported as 0.281.

For RRIRSRPPRLPRPRPRPICFPRP, the “shrunken log2 fold change” value was -0.15.

RRIRKRPPRLPRPRPRPHNAPRP was tested, and the “shrunken log2 fold change” value was 0.0979.

For RRIRLRPPRLPRPRPRPFPNPRP, the “shrunken log2 fold change” value was 0.203.

With RRIRPRPPRLPRPRPRPWWVPRP the “shrunken log2 fold change” value was 0.0961.

RRIRIRPPRLPRPRPRPYGPPRP was tested, and the “shrunken log2 fold change” value was -1.06.

With RRIRDRPPRLPRPRPRPSEMPRP the “shrunken log2 fold change” value was -0.0135.

For RRIRHRPPRLPRPRPRPESKPRP, the “shrunken log2 fold change” value was -0.135.

In the case of RRIRHRPPRLPRPRPRPKWWPRP, the “shrunken log2 fold change” value is reported as 0.0178.

With RRIRYRPPRLPRPRPRPKGSPRP the “shrunken log2 fold change” value was -0.143.

RRIRGRPPRLPRPRPRPLLQPRP was tested, and the “shrunken log2 fold change” value was 0.486.

With RRIRRRPPRLPRPRPRPRGCPRP the “shrunken log2 fold change” value was 0.984.

With RRIRDRPPRLPRPRPRPTMWPRP the “shrunken log2 fold change” value was 0.176.

In the case of RRIRDRPPRLPRPRPRPHGSPRP, the “shrunken log2 fold change” value is reported as 0.208.

In the case of RRIRERPPRLPRPRPRPKHPPRP, the “shrunken log2 fold change” value is reported as -0.0977.

For RRIRRRPPRLPRPRPRPIQWPRP, the “shrunken log2 fold change” value was -0.105.

RRIRTRPPRLPRPRPRPLHGPRP was tested, and the “shrunken log2 fold change” value was 0.184.

For RRIRYRPPRLPRPRPRPVYDPRP, the “shrunken log2 fold change” value was -0.112.

For RRIRNRPPRLPRPRPRPFYMPRP, the “shrunken log2 fold change” value was -0.18.

RRIRNRPPRLPRPRPRPTMGPRP was tested, and the “shrunken log2 fold change” value was -0.0468.

With RRIRDRPPRLPRPRPRPPKDPRP the “shrunken log2 fold change” value was 0.314.

RRIRQRPPRLPRPRPRPIEMPRP was tested, and the “shrunken log2 fold change” value was -0.0847.

For RRIRMRPPRLPRPRPRPGCAPRP, the “shrunken log2 fold change” value was 1.09.

RRIRARPPRLPRPRPRPEPKPRP was tested, and the “shrunken log2 fold change” value was 1.36.

For RRIRMRPPRLPRPRPRPFRCPRP, the “shrunken log2 fold change” value was -0.0869.

For RRIRYRPPRLPRPRPRPRPRPRP, the “shrunken log2 fold change” value was 0.463.

RRIRQRPPRLPRPRPRPSIKPRP was tested, and the “shrunken log2 fold change” value was -0.425.

With RRIRPRPPRLPRPRPRPGPMPRP the “shrunken log2 fold change” value was 0.293.

For RRIRHRPPRLPRPRPRPEAVPRP, the “shrunken log2 fold change” value was -0.00144.

In the case of RRIRGRPPRLPRPRPRPESWPRP, the “shrunken log2 fold change” value is reported as 1.7.

RRIRNRPPRLPRPRPRPCEYPRP was tested, and the “shrunken log2 fold change” value was -0.0196.

In the case of RRIRCRPPRLPRPRPRPYQWPRP, the “shrunken log2 fold change” value is reported as -0.714.

With RRIRCRPPRLPRPRPRPQREPRP the “shrunken log2 fold change” value was -0.0986.

RRIRLRPPRLPRPRPRPRNDPRP was tested, and the “shrunken log2 fold change” value was -0.142.

For RRIRSRPPRLPRPRPRPSHTPRP, the “shrunken log2 fold change” value was -0.572.

RRIRSRPPRLPRPRPRPDGDPRP was tested, and the “shrunken log2 fold change” value was -0.197.

For RRIRHRPPRLPRPRPRPNASPRP, the “shrunken log2 fold change” value was 0.0449.

RRIRDRPPRLPRPRPRPRWHPRP was tested, and the “shrunken log2 fold change” value was 0.42.

RRIRKRPPRLPRPRPRPKGCPRP was tested, and the “shrunken log2 fold change” value was 0.0534.

With RRIRRRPPRLPRPRPRPTYEPRP the “shrunken log2 fold change” value was -0.21.

For RRIRVRPPRLPRPRPRPMPGPRP, the “shrunken log2 fold change” value was 0.18.

For RRIRQRPPRLPRPRPRPIDLPRP, the “shrunken log2 fold change” value was -0.194.

RRIRWRPPRLPRPRPRPMMNPRP was tested, and the “shrunken log2 fold change” value was -0.238.

For RRIRDRPPRLPRPRPRPFFPPRP, the “shrunken log2 fold change” value was 0.0715.

With RRIRGRPPRLPRPRPRPTSNPRP the “shrunken log2 fold change” value was 0.659.

In the case of RRIRSRPPRLPRPRPRPSYAPRP, the “shrunken log2 fold change” value is reported as -0.835.

RRIRTRPPRLPRPRPRPSIIPRP was tested, and the “shrunken log2 fold change” value was -0.647.

With RRIRFRPPRLPRPRPRPLQVPRP the “shrunken log2 fold change” value was -0.135.

In the case of RRIRCRPPRLPRPRPRPKENPRP, the “shrunken log2 fold change” value is reported as 0.192.

RRIRHRPPRLPRPRPRPHDTPRP was tested, and the “shrunken log2 fold change” value was -1.08.

For RRIRDRPPRLPRPRPRPFCRPRP, the “shrunken log2 fold change” value was 0.0534.

In the case of RRIRKRPPRLPRPRPRPHDSPRP, the “shrunken log2 fold change” value is reported as -0.0516.

In the case of RRIRMRPPRLPRPRPRPCPKPRP, the “shrunken log2 fold change” value is reported as -0.214.

RRIRDRPPRLPRPRPRPMEHPRP was tested, and the “shrunken log2 fold change” value was 0.208.

With RRIRARPPRLPRPRPRPCNGPRP the “shrunken log2 fold change” value was -0.139.

With RRIRKRPPRLPRPRPRPMVMPRP the “shrunken log2 fold change” value was 0.0746.

In the case of RRIRYRPPRLPRPRPRPDIRPRP, the “shrunken log2 fold change” value is reported as -0.00867.

For RRIRYRPPRLPRPRPRPHGRPRP, the “shrunken log2 fold change” value was -0.00992.

In the case of RRIRKRPPRLPRPRPRPPYYPRP, the “shrunken log2 fold change” value is reported as -0.291.

For RRIRARPPRLPRPRPRPNMWPRP, the “shrunken log2 fold change” value was 0.188.

For RRIRQRPPRLPRPRPRPLCEPRP, the “shrunken log2 fold change” value was -0.0868.

For RRIRRRPPRLPRPRPRPYLSPRP, the “shrunken log2 fold change” value was -0.288.

With RRIRRRPPRLPRPRPRPHLGPRP the “shrunken log2 fold change” value was -0.044.

RRIRCRPPRLPRPRPRPPTHPRP was tested, and the “shrunken log2 fold change” value was 0.172.

For RRIRNRPPRLPRPRPRPMPVPRP, the “shrunken log2 fold change” value was -0.139.

For RRIRERPPRLPRPRPRPNIDPRP, the “shrunken log2 fold change” value was -0.0761.

With RRIRPRPPRLPRPRPRPQPQPRP the “shrunken log2 fold change” value was 0.26.

RRIRPRPPRLPRPRPRPTMCPRP was tested, and the “shrunken log2 fold change” value was -0.0327.

RRIRGRPPRLPRPRPRPIERPRP was tested, and the “shrunken log2 fold change” value was -0.00587.

With RRIRKRPPRLPRPRPRPCIVPRP the “shrunken log2 fold change” value was -0.286.

In the case of RRIRSRPPRLPRPRPRPHTVPRP, the “shrunken log2 fold change” value is reported as -0.218.

For RRIRCRPPRLPRPRPRPNWWPRP, the “shrunken log2 fold change” value was 0.32.

With RRIRARPPRLPRPRPRPLVSPRP the “shrunken log2 fold change” value was 0.653.

With RRIRMRPPRLPRPRPRPFWMPRP the “shrunken log2 fold change” value was 0.154.

For RRIRIRPPRLPRPRPRPQGGPRP, the “shrunken log2 fold change” value was 0.102.

For RRIRFRPPRLPRPRPRPQGQPRP, the “shrunken log2 fold change” value was -0.103.

With RRIRSRPPRLPRPRPRPFPEPRP the “shrunken log2 fold change” value was -0.22.

In the case of RRIRDRPPRLPRPRPRPWYTPRP, the “shrunken log2 fold change” value is reported as -0.0848.

In the case of RRIRGRPPRLPRPRPRPTLIPRP, the “shrunken log2 fold change” value is reported as 0.337.

RRIRQRPPRLPRPRPRPNFNPRP was tested, and the “shrunken log2 fold change” value was -0.295.

RRIRLRPPRLPRPRPRPYLKPRP was tested, and the “shrunken log2 fold change” value was -0.396.

With RRIRYRPPRLPRPRPRPGCLPRP the “shrunken log2 fold change” value was 1.79.

In the case of RRIRVRPPRLPRPRPRPLSHPRP, the “shrunken log2 fold change” value is reported as -0.32.

In the case of RRIRSRPPRLPRPRPRPSTDPRP, the “shrunken log2 fold change” value is reported as -0.168.

For RRIRWRPPRLPRPRPRPEKDPRP, the “shrunken log2 fold change” value was -0.0712.

In the case of RRIRSRPPRLPRPRPRPGWHPRP, the “shrunken log2 fold change” value is reported as 0.234.

With RRIRQRPPRLPRPRPRPDVCPRP the “shrunken log2 fold change” value was 0.13.

RRIRWRPPRLPRPRPRPFFMPRP was tested, and the “shrunken log2 fold change” value was -0.108.

In the case of RRIRLRPPRLPRPRPRPFVVPRP, the “shrunken log2 fold change” value is reported as -0.236.

RRIRMRPPRLPRPRPRPYKWPRP was tested, and the “shrunken log2 fold change” value was -0.141.

For RRIRWRPPRLPRPRPRPEHLPRP, the “shrunken log2 fold change” value was -0.138.

With RRIRIRPPRLPRPRPRPDGWPRP the “shrunken log2 fold change” value was -0.279.

RRIRWRPPRLPRPRPRPMWCPRP was tested, and the “shrunken log2 fold change” value was -0.166.

In the case of RRIRVRPPRLPRPRPRPHKAPRP, the “shrunken log2 fold change” value is reported as -0.0103.

RRIRFRPPRLPRPRPRPFTFPRP was tested, and the “shrunken log2 fold change” value was -0.41.

In the case of RRIRLRPPRLPRPRPRPADTPRP, the “shrunken log2 fold change” value is reported as -0.538.

With RRIRRRPPRLPRPRPRPIALPRP the “shrunken log2 fold change” value was 0.0331.

With RRIRTRPPRLPRPRPRPVCHPRP the “shrunken log2 fold change” value was -0.173.

RRIRTRPPRLPRPRPRPSYMPRP was tested, and the “shrunken log2 fold change” value was -1.28.

RRIRARPPRLPRPRPRPVDNPRP was tested, and the “shrunken log2 fold change” value was 0.0773.

RRIRDRPPRLPRPRPRPNCRPRP was tested, and the “shrunken log2 fold change” value was 0.0111.

With RRIRWRPPRLPRPRPRPVPYPRP the “shrunken log2 fold change” value was -0.638.

In the case of RRIRCRPPRLPRPRPRPRQWPRP, the “shrunken log2 fold change” value is reported as -0.108.

In the case of RRIRDRPPRLPRPRPRPSPGPRP, the “shrunken log2 fold change” value is reported as 0.241.

RRIRHRPPRLPRPRPRPFSAPRP was tested, and the “shrunken log2 fold change” value was -0.186.

RRIRFRPPRLPRPRPRPKCSPRP was tested, and the “shrunken log2 fold change” value was -0.0194.

With RRIRERPPRLPRPRPRPPQGPRP the “shrunken log2 fold change” value was 0.158.

RRIRARPPRLPRPRPRPLRFPRP was tested, and the “shrunken log2 fold change” value was 0.396.
